Measurements as given in PMC4974056, “The proposed channel-enzyme transient receptor potential melastatin 2 does not possess ADP ribose hydrolase activity” (eLife, 2016).
“And” between values parts separate entries of the source, which are not always exact repeats. Equal entries are not always repeated. Where two headings read alike, the source gives them in different places. Blank lines part the entries; values can stand above or below the molecule they belong to.

Experiments:
[1] = molecular target: T1, T5L-TRPM2 (Homo sapiens, UniProt O94759, G984L/INS985E/Y985D); assay: Excised inside-out patch-clamp recordings, ADPR-dependent channel activation; assay type: cell-based
Protocol: (§1) Oocytes isolated from anaesthetized Xenopus laevis were digested with collagenase, injected with 10–70 ng cRNA, and stored at 18°C. Recordings were done 2–3 days after injection.
The tip of the patch pipette was filled to ~1 cm height with 140 mM Na-gluconate, 2 mM Mg-gluconate2, 10 mM HEPES (pH 7.4 with NaOH); free [Ca^2+] ~4 μM. The pipette electrode was placed into a 140-mM NaCl-based solution carefully layered on top. Bath solution contained 140 mM Na-gluconate, 2 mM Mg-gluconate2, 10 mM HEPES (pH 7.1 with NaOH), and either 1 mM EGTA (to obtain 'zero' (~8 nM) Ca^2+) or 1 mM Ca-gluconate2 (to obtain 125 μM free Ca^2+) ([Csanády and Törocsik, 2009]). Na-ADPR was used at final concentrations of 0.32, 1, 3.2, 10, 32, 100, or 1000 μM, and the Na^+ salt of ε-ADPR at 100 μM. Macroscopic TRPM2 currents were recorded at 25°C at a membrane potential of −20 mV. Currents were amplified, filtered at 2 kHz (Axopatch 200B), digitized at 10 kHz (Digidata 1322A), and stored to disk (Pclamp9, Molecular Devices, Sunnyvale, CA, USA).
Dose dependence of ADPR-induced current activation, expressed as the ratio of mean macroscopic currents observed in the presence of various test [ADPR] (I) and 32 (or 100) μM ADPR (Imax) in the same patch, was fitted to the Hill equation (I/Imax = [ADPR]^n/(K^n+[ADPR]^n). Dose dependence of ADPR-activation in the presence of 100 μM ε-ADPR was expressed as the ratio of the currents observed in the presence of various test [ADPR] + 100 μM ε-ADPR (I) and 100 μM ADPR alone (Imax) in the same patch, and was fitted to the Hill equation substituting K' = K(1+[ε-ADPR]/KI) instead of K (K and n fixed to their control values). Macroscopic current decay time courses following removal of ADPR or Ca^2+ were fitted by single exponentials using the method of least squares.

[2] = molecular target: T5L-TRPM2-Chi2 (Homo sapiens, UniProt O94759+Q9BW91, G984L/INS985E/Y985D, form not given); assay: as above; assay type: cell-based; conditions: current in 1 μM ADPR divided by that in 32 μM ADPR; compared to TRPM2
From the text: The noninactivating TRPM5-like pore mutant of TRPM2 (T5L-TRPM2) was contained in the pGEMHE vector ([Tóth and Csanády, 2012]). The NUDT9H domain of TRPM2 was replaced by Chi2A, Chi3 or Chi4 using the native BlpI-site upstream of the domain and an XbaI-site downstream of the Stop-codon in each chimeric construct. Single-base mutations to generate Stop-codons immediately upstream of the hexahistidine tags of Chi3 and Chi4 were then introduced (QuickChange II, Agilent Technologies, Santa Clara, CA, USA), yielding TRPM2-Chi3 and TRPM2-Chi4; TRPM2-Chi2 lacked a His-tag because it was derived from Chi2A.
as §1
The tip of the patch pipette was filled to ~1 cm height with 140 mM Na-gluconate, 2 mM Mg-gluconate2, 10 mM HEPES (pH 7.4 with NaOH); free [Ca^2+] ~4 μM. The pipette electrode was placed into a 140-mM NaCl-based solution carefully layered on top. […] Macroscopic TRPM2 currents were recorded at 25°C at a membrane potential of −20 mV. […]
Dose dependence of ADPR-induced current activation, expressed as the ratio of mean macroscopic currents observed in the presence of various test [ADPR] […]

[3] = molecular target: T1, T5L-TRPM2; design: method as in Tóth and Csanády, 2012; conditions: previously established; ref Tóth and Csanády, 2012; read-out: half-saturating concentration; cited from earlier work
[4] = Spontaneous ADPR degradation at basic pH (TLC and Pi assay, no ADPRase); assay type: physicochemical
Protocol: (§2) ADPRase activities of mitochondrial NUDT9, NUDT9H, and the purified chimeric constructs (Chi2, Chi3S, Chi4S) were quantitated by densitometric detection of the AMP product on TLC sheets. The 20-μl reaction mixtures contained 0.1, 0.5 or 1 μM purified protein, 10 mM Na-ADPR (Sigma-Aldrich, St. Louis, MO, USA), 16 mM MgCl2, and 50 mM reaction buffer (RB). The reaction buffers used were: 50 mM MES, pH 6.5 with NaOH (RB1); 50 mM HEPES, pH 7.1 with NaOH (RB2); 50 mM Tris, pH 8.5 with HCl (RB3); RB1 + 100 mM NaCl (RB4); RB2 + 100 mM NaCl (RB5), and RB3 + 100 mM NaCl (RB6). For the enzyme kinetics experiments on NUDT9 and Chi2, aliquots from the reaction mixtures were collected at the indicated time points; 3 independent experiments were performed for both proteins and each condition, and data are presented as mean ± SEM. All incubations were at room temperature (~25°C). For TLC, 1-μl aliquots of reaction mixtures were placed on Polygram SIL G/UV254 plates (Macherey-Nagel, Düren, Germany), dried and developed in 0.2 M NH4HCO3 in ethanol:water 7:3 (vol/vol). Nucleotides were visualized under UV light. Densitometry of nucleotide intensities was done using ImageJ software.
(§3) The ADPRase activities of the same proteins were additionally tested with a more sensitive assay based on colorimetric detection of Pi (Pi assay) liberated from both ADPRase products AMP and R5P by co-applied alkaline phosphatase (AP) ([Rafty et al., 2002]). AP liberates Pi from AMP and R5P, but not from intact ADPR: thus, Pi is produced from hydrolyzed ADPR at a molar ratio of 1:2. In brief, 150-μl reaction volumes containing 5 or 50 nM purified protein, 5–6 U bovine AP, 1 mM Na-ADPR, 16 mM MgCl2, and 50 mM reaction buffer at various pH values (MES 6.5, HEPES 7.1, Tris 8.5, and Tris 9.0) were incubated for 30 min at either 37°C or room temperature. The reaction was stopped and Pi visualized by adding 850 μl coloring solution (6:1 vol/vol ratio mixture of 0.42% ammonium molybdate tetrahydrate in 1N H2SO4 and 10% L-ascorbic acid) followed by incubation for 20 min at 45°C. Optical density was then measured at 820 nm (NanoPhotometer P300, Implen GmbH, Munich, Germany). Coloring solution was freshly made, and standard curve (0.050–2 mM KH2PO4) obtained, daily. Reactions with 1 mM AMP or R5P (instead of ADPR) served as positive controls. All reagents were from Sigma-Aldrich.

[5] = design: method as in Perraud et al., 2001, 2003; conditions: ref Perraud et al., 2001, 2003, cited from earlier work
[6] = Enzymatic (ADPRase) activity assay using thin-layer chromatography (TLC); assay type: biochemical; conditions: for ADPRase activity (conversion of ADPR into AMP and R5P, TLC): 1 μM protein, 16 mM Mg2+, 2-hr incubation, pH 6.5, 7.1 and 8.5, absence or presence of 100 mM NaCl; for ADPRase activity (conversion of ADPR into AMP and R5P, TLC) / kcat: 10 mM ADPR, room temperature; for Enzyme: Table 1 summary of ADPRase activity; for kcat: 0.5 μM protein
Protocol: as §2

[7] = Solubility of recombinant proteins expressed in E.coli; assay type: physicochemical; conditions: for Soluble: expressed in E.coli, Table 1
Protocol: The soluble proteins (NUDT9 and Chi2) were expressed and purified as previously described for mitochondrial NUDT9 ([Tóth et al., 2014]). In brief, bacterial cultures were grown at 37°C in Luria-Bertani medium supplemented with the appropriate antibiotic and induced with 1 mM isopropyl-β-D-1-thiogalactopyranoside (IPTG) upon reaching OD600 of ~0.7. After 3 hr of incubation, cells were harvested and lysed with sonication in 20 mM Tris (pH 8.5 with HCl) / 200 mM NaCl. The cleared supernatant was incubated with Ni-Sepharose 6 Fast Flow resin (GE Healthcare Hungary, Hungary) for 3 hr under gentle rotation. The resin was then washed with lysis buffer supplemented with 20 mM imidazole, and the protein eluted with a buffer containing 20 mM Tris (pH 8.5 with HCl), 100 mM NaCl, and 400 mM imidazole.
Chi3S, Chi4S and NUDT9H were little soluble to insoluble when expressed at 37°C, the majority of the proteins ending up in inclusion bodies, but gave tractable (~1–5%) soluble fractions when induced with 0.1 mM IPTG at 25°C overnight. NUDT9H was then purified as NUDT9. Chi3S and Chi4S were purified using Strep-Tactin chromatography following the manufacturer’s instructions (IBA GmbH, Göttingen, Germany).

[8] = Enzymatic activity assay using colorimetric detection of inorganic phosphate (Pi assay, coupled to alkaline phosphatase); assay type: biochemical; conditions: 5 or 50 nM protein co-applied with 1 mM ADPR and AP, 30 min, pH 6.5-9.0, 37°C or RT
Protocol: as §3, with “Reactions with 1 mM AMP or R5P (instead of ADPR) served as positive controls. All reagents were from Sigma-Aldrich.” left out
Molecular turnover rates (kcat) for NUDT9 were calculated from the [Pi] released in samples containing 5 nM NUDT9, in which [ADPR] remained >0.9 mM (i.e., saturating [[Perraud et al., 2003]]) throughout the 30-min incubation period, using the equation kcat = 0.5[Pi]released/5 nM/1800 s.

T1 sequence (O94759 whole entry, stated change not applied): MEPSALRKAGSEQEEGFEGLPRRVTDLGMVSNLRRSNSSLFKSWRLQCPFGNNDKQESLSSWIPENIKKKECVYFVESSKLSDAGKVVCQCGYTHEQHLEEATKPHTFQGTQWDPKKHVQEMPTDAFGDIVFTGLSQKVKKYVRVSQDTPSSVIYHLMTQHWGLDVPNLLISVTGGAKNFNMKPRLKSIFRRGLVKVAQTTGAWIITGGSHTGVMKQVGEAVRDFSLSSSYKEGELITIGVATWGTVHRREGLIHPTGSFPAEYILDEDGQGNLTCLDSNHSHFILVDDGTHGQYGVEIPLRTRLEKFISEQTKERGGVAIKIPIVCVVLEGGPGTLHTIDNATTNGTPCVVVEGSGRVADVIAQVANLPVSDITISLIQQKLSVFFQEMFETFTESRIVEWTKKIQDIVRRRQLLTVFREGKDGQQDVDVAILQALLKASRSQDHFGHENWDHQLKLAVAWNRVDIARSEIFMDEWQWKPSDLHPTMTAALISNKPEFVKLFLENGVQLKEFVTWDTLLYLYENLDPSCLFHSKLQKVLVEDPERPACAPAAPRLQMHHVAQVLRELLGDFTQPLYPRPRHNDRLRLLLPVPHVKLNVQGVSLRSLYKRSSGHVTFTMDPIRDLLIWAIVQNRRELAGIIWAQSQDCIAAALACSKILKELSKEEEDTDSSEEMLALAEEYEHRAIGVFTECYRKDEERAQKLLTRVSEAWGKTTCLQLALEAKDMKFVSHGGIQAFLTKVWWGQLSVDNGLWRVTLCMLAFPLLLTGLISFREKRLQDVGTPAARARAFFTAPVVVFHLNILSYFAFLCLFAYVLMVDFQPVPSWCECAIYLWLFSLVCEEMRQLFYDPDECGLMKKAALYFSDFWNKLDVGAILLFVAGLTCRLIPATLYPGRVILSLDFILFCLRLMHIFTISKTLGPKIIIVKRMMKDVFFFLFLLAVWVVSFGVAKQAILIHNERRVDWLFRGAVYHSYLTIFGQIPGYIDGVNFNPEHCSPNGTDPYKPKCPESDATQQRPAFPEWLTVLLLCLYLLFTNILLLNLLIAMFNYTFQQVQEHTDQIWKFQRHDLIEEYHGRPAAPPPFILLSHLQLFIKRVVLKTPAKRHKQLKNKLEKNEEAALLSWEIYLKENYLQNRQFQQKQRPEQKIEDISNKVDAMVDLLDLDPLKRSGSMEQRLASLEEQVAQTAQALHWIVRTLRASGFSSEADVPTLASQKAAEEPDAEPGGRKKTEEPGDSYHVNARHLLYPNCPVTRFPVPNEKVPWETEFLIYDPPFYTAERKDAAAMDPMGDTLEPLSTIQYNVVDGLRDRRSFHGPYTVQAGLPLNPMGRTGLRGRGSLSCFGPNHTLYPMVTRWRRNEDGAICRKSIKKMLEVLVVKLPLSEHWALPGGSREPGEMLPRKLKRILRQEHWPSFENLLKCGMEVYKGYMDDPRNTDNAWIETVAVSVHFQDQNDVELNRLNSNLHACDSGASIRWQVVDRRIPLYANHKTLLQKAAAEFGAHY
Chain of T5L-TRPM2-Chi2 (O94759 1-1353, stated change not applied, one chain of several): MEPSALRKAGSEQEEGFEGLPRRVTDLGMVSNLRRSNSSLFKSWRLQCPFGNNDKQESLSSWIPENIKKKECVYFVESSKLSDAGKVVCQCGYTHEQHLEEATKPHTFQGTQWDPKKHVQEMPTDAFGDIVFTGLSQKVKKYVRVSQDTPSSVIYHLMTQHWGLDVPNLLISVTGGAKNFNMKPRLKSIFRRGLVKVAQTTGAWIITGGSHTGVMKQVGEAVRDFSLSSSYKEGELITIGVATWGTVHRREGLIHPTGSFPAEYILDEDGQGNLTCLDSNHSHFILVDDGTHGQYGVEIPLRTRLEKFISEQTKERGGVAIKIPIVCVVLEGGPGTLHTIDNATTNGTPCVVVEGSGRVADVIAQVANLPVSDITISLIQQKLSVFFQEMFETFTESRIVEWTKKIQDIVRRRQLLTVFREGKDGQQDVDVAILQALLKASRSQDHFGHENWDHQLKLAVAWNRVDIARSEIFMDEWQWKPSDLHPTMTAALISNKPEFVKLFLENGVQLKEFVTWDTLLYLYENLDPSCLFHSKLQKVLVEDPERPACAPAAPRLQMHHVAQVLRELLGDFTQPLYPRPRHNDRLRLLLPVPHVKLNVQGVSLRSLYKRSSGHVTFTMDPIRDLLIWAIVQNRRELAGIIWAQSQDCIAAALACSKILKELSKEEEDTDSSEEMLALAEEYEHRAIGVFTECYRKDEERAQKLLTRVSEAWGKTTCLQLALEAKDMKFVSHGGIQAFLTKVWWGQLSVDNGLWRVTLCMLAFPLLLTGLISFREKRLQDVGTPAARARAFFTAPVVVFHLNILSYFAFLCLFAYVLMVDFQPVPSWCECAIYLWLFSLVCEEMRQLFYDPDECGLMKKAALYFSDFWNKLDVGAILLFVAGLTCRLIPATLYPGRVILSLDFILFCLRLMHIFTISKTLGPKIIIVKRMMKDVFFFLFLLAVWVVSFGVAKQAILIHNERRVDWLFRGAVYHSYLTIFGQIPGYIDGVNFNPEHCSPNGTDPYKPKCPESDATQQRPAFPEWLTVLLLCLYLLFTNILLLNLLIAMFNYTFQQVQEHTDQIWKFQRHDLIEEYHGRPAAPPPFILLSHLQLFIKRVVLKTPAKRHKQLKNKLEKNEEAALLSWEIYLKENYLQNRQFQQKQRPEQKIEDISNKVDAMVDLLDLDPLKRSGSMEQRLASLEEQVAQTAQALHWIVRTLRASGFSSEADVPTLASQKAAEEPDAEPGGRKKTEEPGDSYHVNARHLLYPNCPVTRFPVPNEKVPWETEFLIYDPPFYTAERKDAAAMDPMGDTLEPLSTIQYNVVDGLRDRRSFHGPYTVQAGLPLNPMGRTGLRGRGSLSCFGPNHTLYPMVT

n (Hill slope for ADPR binding) ([1]; Figure 8B): 1.3±0.1
EC50 ([1]; inside-out patches from Xenopus laevis oocytes, saturating Ca2+, −20 mV, Hill fit (Figure 7H), read-out: K1/2 for ADPR-induced current activation): 1300 ± 100 nM
Fractional activation by 1 μM ADPR [2]: reduced
spontaneous hydrolysis of applied ADPR (Pi assay) ([4]; 1 mM ADPR, 30 min, with AP, with or without Chi4S or NUDT9H): ~ 1%
spontaneous degradation ([4]; 25°C and pH 8.5, 20 min): ~ 0.3%
time constant for spontaneous ADPR hydrolysis ([4]; 25°C and pH 8.5, assuming exponential decay): ~ 100 hr
decay time constant of spontaneous degradation ([4]; 25°C, pH 8.5): about 100 h
spontaneous degradation ([4]; 25°C, pH 8.5, 2 hr): ~ 2%
ADPR degraded spontaneously ([4]; 25°C, pH 8.5, 24 hr): ~ 20%
spontaneous degradation ([4]; 37°C and pH 9, 30 min): ~ 1%
AMP which forms spontaneously ([4]; 20 min, pH 8.5, 10 mM ADPR): ~ 30 μM
stability ([4]; neutral or slightly acidic pH): inherently stable
Molecule: Nc1ncnc2c1ncn2C1OC(COP(=O)(O)OP(=O)(O)OCC2OC(O)C(O)C2O)C(O)C1O (centres unmarked) [ADPR, adenosine 5'-diphosphoribose]
EC50 [3]: 1000 nM

Enzyme [6]: No
Molecule: NUDT9H: isolated C-terminal cytosolic NUDT9-homology domain of TRPM2, recombinant, hexahistidine tag
reported turnover rate ([5]; isolated NUDT9H): ~ 0.1 s^-1
kcat ([5]; pH 9 and 37°C): ~ 0.06 s^-1
reported enzymatic activity, lower than that of NUDT9 [5]: about 100 fold
ADPRase activity (conversion of ADPR into AMP and R5P, TLC) [6]: failed to hydrolyze the nucleotide
stability of purified soluble preparation ([7]; 4°C): precipitated overnight at 4 °C
Soluble [7]: No^¶
Pi release [8]: did not result in any significant Pi release

Enzyme [6]: Yes
B1: NUDT9: soluble, Mg2+-dependent mitochondrial ADPR pyrophosphatase, recombinant, C-terminal hexahistidine tag (protein)
chain: ENSHNKARTSPYPGSKVERSQVPNEKVGWLVEWQDYKPVEYTAVSVLAGPRWADPQISESNFSPKFNEKDGHVERKSKNGLYEIENGRPRNPAGRTGLVGRGLLGRWGPNHAADPIITRWKRDSSGNKIMHPVSGKHILQFVAIKRKDCGEWAIPGGMVDPGEKISATLKREFGEEALNSLQKTSAEKREIEEKLHKLFSQDHLVIYKGYVDDPRNTDNAWMETEAVNYHDETGEIMDNLMLEAGDDAGKVKWVDINDKLKLYASHSQFIKLVAEKRDAHWSEDSEADCHAL
modifications: left off: His6, C-terminal, kept
notes: soluble, Mg2+-dependent mitochondrial ADPR pyrophosphatase, recombinant, C-terminal hexahistidine tag
kcat ([5]; previously reported values): ~ 8 s^-1
ADPRase activity (conversion of ADPR into AMP and R5P, TLC) [6]: active ADPRases
decrease of kcat from pH 8.5 to 6.5 ([6]; TLC kinetics): ~ 1.4 fold
kcat ([6]; pH 6.5 (RB1)): 6.4 s⁻¹
kcat ([6]; pH 7.1 (RB2)): 7.6 s⁻¹
kcat ([6]; pH 8.5 (RB3)): 9 s⁻¹ and 9.0 s⁻¹
Soluble [7]: Yes
